Consider five molecules from publication PMC12102760 (Protein Science : A Publication of the Protein Society, 2025).

Data set [1] has as its target T1, EphA2-Fc (Homo sapiens, UniProt P29317).
T1 construct: EphA2, human, extracellular domain; Eph ECDs used for the phage selections were from R&D; also called EphA2 ECD
Briefly: BLI; IgG captured on anti-human biosensors, quenched with Fc; receptor ECD-Fc in solution, three-fold dilutions from 300 nM; PBS, 1% BSA, 0.05% Tween 20; 25°C; 1:1 binding model. To be noted: both partners purified.

For data set [2], the target named is T2, EphA4-Fc (Homo sapiens, UniProt P54764).
T2 construct: EphA4, human, extracellular domain
Described as above. To be noted: both partners purified.

For data set [3], the target named is T3, EphA8-Fc (Homo sapiens, UniProt P29322).
T3 construct: EphA8, human, extracellular domain
The description is as above. To be noted: both partners purified.

Data set [4] concerns the target T4, EphA2 extracellular domain (ECD) (human, UniProt P29317).
T4 construct: EphA2, human, extracellular domain (LBD, CRD, FN1, FN2); The catalogue number is printed for the SEC and the selections; also called EphA2 ECD; EphA2-His; source: bought: R&D Systems (3035-A2)
Put plainly: SPR; EphA2 ECD immobilised by amine coupling on GLC chip, Fabs from 100 nM in three-fold dilutions, PBS, 25°C, 1:1 Langmuir model. To be noted: both partners purified.

Data set [5] concerns the molecule itself. Put plainly: crystal structure; Fab^S1CEL1 with EphA2 LBD-CRD, 4.6 Å; 16% PEG 8000, 100 mM CHES pH 9.0, 200 mM magnesium sulfate; one Fab and two LBD-CRD in the asymmetric unit.

T4 sequence (P29317 24-537): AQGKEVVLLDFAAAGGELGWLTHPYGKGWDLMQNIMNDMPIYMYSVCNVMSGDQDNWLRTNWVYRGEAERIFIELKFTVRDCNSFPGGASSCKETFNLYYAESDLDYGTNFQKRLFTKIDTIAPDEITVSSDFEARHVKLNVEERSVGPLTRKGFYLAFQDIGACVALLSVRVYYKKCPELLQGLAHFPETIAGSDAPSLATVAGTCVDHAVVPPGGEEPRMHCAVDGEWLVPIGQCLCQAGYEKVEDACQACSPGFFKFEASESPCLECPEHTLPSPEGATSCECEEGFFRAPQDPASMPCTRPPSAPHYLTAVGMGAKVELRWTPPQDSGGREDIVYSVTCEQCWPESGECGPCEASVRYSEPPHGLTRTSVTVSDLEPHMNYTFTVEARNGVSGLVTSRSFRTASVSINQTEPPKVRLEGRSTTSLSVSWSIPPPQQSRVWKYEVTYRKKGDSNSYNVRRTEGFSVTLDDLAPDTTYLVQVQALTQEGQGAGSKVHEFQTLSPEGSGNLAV
T1 sequence (P29317 24-537): as above
T2 sequence (P54764 20-547): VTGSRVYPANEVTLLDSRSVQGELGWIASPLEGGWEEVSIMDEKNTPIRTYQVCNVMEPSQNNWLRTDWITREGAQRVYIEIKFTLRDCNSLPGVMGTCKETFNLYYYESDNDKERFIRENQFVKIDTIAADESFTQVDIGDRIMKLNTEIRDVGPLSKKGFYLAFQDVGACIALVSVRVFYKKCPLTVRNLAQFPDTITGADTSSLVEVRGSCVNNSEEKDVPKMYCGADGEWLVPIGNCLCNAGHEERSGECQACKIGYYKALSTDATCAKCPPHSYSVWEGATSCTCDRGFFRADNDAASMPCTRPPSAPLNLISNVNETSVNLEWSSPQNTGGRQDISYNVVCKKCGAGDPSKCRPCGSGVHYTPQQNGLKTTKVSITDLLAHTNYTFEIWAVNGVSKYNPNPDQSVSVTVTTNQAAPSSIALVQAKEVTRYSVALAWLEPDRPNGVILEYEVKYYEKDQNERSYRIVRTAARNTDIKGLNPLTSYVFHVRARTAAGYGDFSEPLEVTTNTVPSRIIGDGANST
T3 sequence (P29322 28-542): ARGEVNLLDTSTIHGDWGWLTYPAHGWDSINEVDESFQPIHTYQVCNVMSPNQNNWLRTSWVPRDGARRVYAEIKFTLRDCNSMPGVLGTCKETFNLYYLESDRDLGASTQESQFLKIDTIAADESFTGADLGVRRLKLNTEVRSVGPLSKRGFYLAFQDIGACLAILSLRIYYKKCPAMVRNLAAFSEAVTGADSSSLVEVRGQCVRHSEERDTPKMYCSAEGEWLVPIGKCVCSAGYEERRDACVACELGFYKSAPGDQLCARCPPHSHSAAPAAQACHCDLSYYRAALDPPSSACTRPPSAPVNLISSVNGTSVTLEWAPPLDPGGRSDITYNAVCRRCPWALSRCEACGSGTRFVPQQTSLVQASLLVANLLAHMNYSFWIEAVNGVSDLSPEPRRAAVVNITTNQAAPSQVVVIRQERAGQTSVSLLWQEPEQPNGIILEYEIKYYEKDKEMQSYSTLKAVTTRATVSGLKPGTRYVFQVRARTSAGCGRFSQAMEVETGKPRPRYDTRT

B1: IgG L1 (antibody, V domains shown)
VH: EVQLVESGGGLVQPGGSLRLSCAASGFTISSSYIHWVRQAPGKGLEWVASISSYYGSTSYADSVKGRFTISADTSKNTAYLQMNSLRAEDTAVYYCARSHYSVWWGWHSVSYYAAFDYWGQGTLVTVSS
VL: DIQMTQSPSSLSASVGDRVTITCRASQSVSSAVAWYQQKPGKAPKLLIYSASSLYSGVPSRFSGSRSGTDFTLTISSLQPEDFATYYCQQGSAPFTFGQGTKVEIK
notes: full-length IgG constant region not specified; as the light chain of m12; Bivalent full-length IgG; also called L1 IgG; Ab L1; source: mammalian cells, purified; copies: 2 + 2
Consider B1, for which, in data set [1], the affinity, expressed as Kd, was 0.27 nM. Besides, the binding result in data set [2] and in data set [3] was “no binding (tested: 300 nM)” each time.

B2: Fab L1 (Fab, V domains shown)
VH: EVQLVESGGGLVQPGGSLRLSCAASGFTISSSYIHWVRQAPGKGLEWVASISSYYGSTSYADSVKGRFTISADTSKNTAYLQMNSLRAEDTAVYYCARSHYSVWWGWHSVSYYAAFDYWGQGTLVTVSS
VL: DIQMTQSPSSLSASVGDRVTITCRASQSVSSAVAWYQQKPGKAPKLLIYSASSLYSGVPSRFSGSRSGTDFTLTISSLQPEDFATYYCQQGSAPFTFGQGTKVEIK
notes: synthetic Fab from phage library F; The deposited chains carry crystallisation-enhancing framework substitutions that this Fab lacks; source: E. coli BL21, purified (Protein A)
For B2, the Kd in data set [4] was less than 1 nM.

B3: EphA2 LBD-CRD (residues 23-326) (domain or fragment, human, UniProt P29317 23-326, looked up)
chain: AAQGKEVVLLDFAAAGGELGWLTHPYGKGWDLMQNIMNDMPIYMYSVCNVMSGDQDNWLRTNWVYRGEAERIFIELKFTVRDCNSFPGGASSCKETFNLYYAESDLDYGTNFQKRLFTKIDTIAPDEITVSSDFEARHVKLNVEERSVGPLTRKGFYLAFQDIGACVALLSVRVYYKKCPELLQGLAHFPETIAGSDAPSLATVAGTCVDHAVVPPGGEEPRMHCAVDGEWLVPIGQCLCQAGYEKVEDACQACSPGFFKFEASESPCLECPEHTLPSPEGATSCECEEGFFRAPQDPASMPCT
notes: EphA2, human, LBD-CRD, residues 23-326; A thrombin cleavage site precedes the C-terminal hexahistidine tag; also called LBD-CRD1; LBD-CRD2; source: kifunensine culture, deglycosylated by endoH
Regarding B3, the binding result in data set [5] is “binds”.

B4: Fab F1 (Fab, V domains shown)
VH: EVQLVESGGGLVQPGGSLRLSCAASGFDSGAYLRHWVRQAPGKGLEWVASIYPSYGYTSYADSVKGRFTISADTSKNTAYLQMNSLRAEDTAVYYCARSAASYYGYWHWYHFSPGMDYWGQGTLVTVSS
VL: DIQMTQSPSSLSASVGDRVTITCRASQSVSSAVAWYQQKPGKAPKLLIYSASDLYSGVPSRFSGSRSGTDFTLTISSLQPEDFATYYCQQYVSGGWLITFGQGTKVEIK
notes: Fab^S1F1 in PDB 8T7F (chains C and G, heavy and light chain); Optimised from the parental Fab F1′ (Enderle et al., 2021); The deposited chains carry framework substitutions that this Fab lacks; source: E. coli BL21, purified (Protein A)
B4 yielded a Kd in data set [4] of less than 1 nM.

B5: Fab C1 (Fab, V domains shown)
VH: EVQLVESGGGLVQPGGSLRLSCAASGFTIYYSSMHWVRQAPGKGLEWVASISSYYGYTYYADSVKGRFTISADTSKNTAYLQMNSLRAEDTAVYYCARYYAMDYWGQGTLVTVSS
VL: DIQMTQSPSSLSASVGDRVTITCRASQSVSSAVAWYQQKPGKAPKLLIYSASSLYSGVPSRFSGSRSGTDFTLTISSLQPEDFATYYCQQYYGYGGYPITFGQGTKVEIK
notes: as for B2
On to B5, for which, in data set [4], the dissociation constant (Kd) is less than 1 nM.

For orientation: Kd means a measure of binding affinity in units of concentration. A high value points to weaker binding.
